Results as given in the supplement of paper PMC6755084.

B1: minF1; the commonest letter at each place (parent)
chain: GAGACCGCAACTGAAAAGTTGTTATCAGAAATGGATGGGTTGAATTTCTGCACGTAGAAGCAAAAGGC

Variants of: B1
Assay: fraction ligated after 30 min (ligated reads / total reads); higher = more ligase activity
Conditions: with F1*subA RNA substrate (template-directed ligation), 42 °C
Method in brief: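 RNAs for minimized ligase ribozyme variants were transcribed with T7 from PCR-amplified oligo-pool templates and purified on gels. Ligated and unligated species were resolved on gels, converted to cDNA with barcoded primers, and read on a MiSeq with core bases filtered at quality ≥30. Fraction ligated per variant is the ratio of ligated reads to total reads.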

Variant	fraction ligated
A35T A43C	0.00462
G42A A43C	0.0101
G42A A43T	0.00678
G42A A43G	0.0596
G37T A44T	0.0093
G37T A44C	0.00343
G37T A44G	0.0087
G42C A43C A44C	0.00224
G42C A43C A44G	0.00342
G42C A43C A44T	0.00191
A35C T36G	0.00841
A35C T36C	0.00473
A35C T36A	0.00922
G34T A35T	0.00561
G34T A35C	0.00324
G34T A35G	0.0067
G42C A44T	0.00542
G42C A44G	0.00439
G42C A44C	0.00284
A43T A44G	0.00469
A43T A44T	0.00531
A43T A44C	0.00191
G42T A43T A44G	0.000847
G42T A43T A44T	0.00186

Variant	fraction ligated
G42T A43T A44C	0.00206
A44T	0.794
A44C	0.646
A44G	0.79
T36C A43T	0.00367
T36C A43C	0.00423
T36C A43G	0.00496
G42C A43T A44T	0.00299
G42C A43T A44G	0.0022
G42C A43T A44C	0.000795
T36G A44T	0.0156
T36G A44C	0.00345
T36G A44G	0.00979
G37A A43G	0.00388
G37A A43C	0.00236
G37A A43T	0.00461
T36A G37A	0.00486
T36A G37T	0.0153
T36A G37C	0.00357
G42C A43G	0.0762
G42C A43T	0.00312
G42C A43C	0.00394
A35C G37C	0.00352
A35C G37A	0.00266

Variant	fraction ligated
A35C G37T	0.00578
G42T A44G	0.0143
G42T A44T	0.0246
G42T A44C	0.00596
G42C	0.0127
G42T	0.117
G42A	0.364
G34T A43G	0.0028
G34T A43T	0.00646
G34T A43C	0.00412
T36G G37A	0.00776
T36G G37C	0.0044
T36G G37T	0.00976
A35G A44G	0.0773
A35G A44T	0.105
A35G A44C	0.0421
G42A A44C	0.024
G42A A44G	0.0717
G42A A44T	0.0746
A35T	0.037
A35C	0.0267
A35G	0.271
A35T G37T	0.00238
A35T G37A	0.00299

Variant	fraction ligated
A35T G37C	0.00461
G34T G42T	0.00241
G34T G42A	0.00242
G34T G42C	0.00101
A35C A43C	0.00377
A35C A43G	0.00754
A35C A43T	0.00614
G37C G42C	0.00331
G37C G42T	0.00137
G37C G42A	0.00281
A35T A44G	0.0054
A35T A44C	0.00563
A35T A44T	0.00912
T41C	0.86
T41A	0.689
T41G	0.146
A35C A44T	0.0114
A35C A44G	0.00784
A35C A44C	0.00567
G42C A43G A44T	0.00288
G42C A43G A44C	0.000834
G42C A43G A44G	0.00392
T36A A43C	0.0049
T36A A43G	0.00353

Variant	fraction ligated
T36A A43T	0.00522
G42T A43C A44G	0.00164
G42T A43C A44T	0.0038
G42T A43C A44C	0.00131
A35T T36A	0.0108
A35T T36C	0.00257
A35T T36G	0.00748
T36A	0.0309
T36G	0.0461
T36C	0.0157
G37C	0.00417
G37T	0.0174
G37A	0.00659
T36C G42T	0.00209
T36C G42A	0.00494
T36C G42C	0.00306
T36A G42A	0.00342
T36A G42C	0.0064
T36A G42T	0.00416
G37T G42C	0.00492
G37T G42A	0.00778
G37T G42T	0.00146
A43G	0.0856
A43C	0.115

Variant	fraction ligated
A43T	0.13
T36C G37C	0.0038
T36C G37A	0.00566
T36C G37T	0.00876
G34C A44T	0.00566
G34C A44C	0.00339
G34C A44G	0.00318
T36G G42T	0.000662
T36G G42A	0.00463
T36G G42C	0.00216
A35T G42C	0.00256
A35T G42T	0.00285
A35T G42A	0.00343
A35G T36C	0.00252
A35G T36A	0.00856
A35G T36G	0.00747
G37A G42A	0.00332
G37A G42C	0.00225
G37A G42T	0.00089
G42T A43G	0.115
G42T A43C	0.000975
G42T A43T	0.00326
G34T T36A	0.00722
G34T T36G	0.00275

Variant	fraction ligated
G34T T36C	0.00276
G34C G42A	0.00229
G34C G42T	0.00284
G34C G42C	0.00271
G37C A43G	0.00302
G37C A43T	0.00493
G37C A43C	0.00193
G34C T36A	0.00257
G34C T36C	0.00419
G34C T36G	0.00561
A43C A44G	0.00638
A43C A44T	0.00456
A43C A44C	0.00194
G42A A43C A44C	0.00102
G42A A43C A44G	0.00203
G42A A43C A44T	0.00211
G34T	0.00484
G42T A43G A44G	0.00264
G42T A43G A44C	0.00145
G42T A43G A44T	0.00254
G42A A43T A44T	0.00133
G42A A43T A44G	0.000353
G42A A43T A44C	0.00312
